In the supplement of paper PMC7877785:
± gives the uncertainty stated by the source.

Assay: self-splicing fitness, log relative to wild type (ln ratio); higher = more splicing; Tetrahymena group I intron in knt gene, E. coli kanamycin selection, DiMSum; sequences stand for … in CUCUCU…GGAGGGAAAAGUUAUCAGGCAUGCACCUGGUAGCUAGUCUUUAAACCAAUAGAUUGCAUCGGUUUAAAAGGCAAGACCGUCAAAUUGCGGGAAAGGGGUCAACAGCCGUUCAGUACCAAGUCUCAGGGGAAACUUUGAGAUGGCCUUGCAAAGGGUAUGGUAAUAAGCUGACGGACAUGGUCCUAACCACGCAGCCAAGUCCUAAGUCAACAGAUCUUCUGUUGAUAUGGAUGCAGUUCACAGACUAAAUGUCGGUCGGGGAAGAUGUAUUCUUCUCAUAAGAUAUAGUCGGACCUCUCCUUAAUGGGAGCUAGCGGAUGAAGUGAUGCAACACUGGAGCCGCUGGGAACUAAUUUGUAUGCGAAAGUAUAUUGAUUAGUUUUGGAGUACUCGUGGUCG
Method in brief: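 Six replicate transformations of E. coli BL21(DE3) with a pET-22b(+) library were grown overnight at 37°C or 30°C. The library randomised all eight P1ex-region intron nucleotides, the intron lying in the knt kanamycin-resistance gene, and plates were LB agar with or without 25 μg/mL kanamycin plus 100 μg/mL carbenicillin, 50 μM IPTG and 0.2% rhamnose. Pooled colonies were amplicon-sequenced on an Illumina HiSeq 2500, and fitness is the DiMSum error-weighted combination of wild-type-normalised replicate fold changes, kanamycin versus none.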

| Sequence | self-splicing fitness (ln) (30 °C) | self-splicing fitness (ln) (37 °C) |
| --- | --- | --- |
| UACCAGCAAUAUUACGUGGA | -2.89 ± 0.15 | -2.08 ± 0.12 |
| GACUAGCAAUAUUACGGCCC |  | 0.226 ± 0.4 |
| UCAUAGCAAUAUUACGUUUA | -4.13 ± 0.39 | -2.11 ± 0.2 |
| AUGUAGCAAUAUUACGUGCG | -1.8 ± 0.09 | -0.122 ± 0.097 |
| CGCGAGCAAUAUUACGGGUG | -2.14 ± 0.077 | -1.68 ± 0.1 |
| AUUCAGCAAUAUUACGGGCG | -0.695 ± 0.1 | -0.0814 ± 0.12 |
| UACAAGCAAUAUUACGUUCA | -0.621 ± 0.052 | -0.478 ± 0.069 |
| CACUAGCAAUAUUACGGUGU | -3.65 ± 0.15 | -2.95 ± 0.21 |
| UCUUAGCAAUAUUACGUCCU | -1.97 ± 0.28 | -2.7 ± 0.38 |
| AACUAGCAAUAUUACGGGAC | -3.22 ± 0.3 | -1.08 ± 0.17 |
| GUCCAGCAAUAUUACGCUGA | -0.534 ± 0.092 | -0.466 ± 0.13 |
| GCUAAGCAAUAUUACGGAGC |  | -2.4 ± 0.34 |
| GUUCAGCAAUAUUACGAACU | -3.89 ± 0.14 | -2.56 ± 0.16 |
| UACUAGCAAUAUUACGCAAC | -2.26 ± 0.26 | -1.85 ± 0.34 |
| CGUAAGCAAUAUUACGGGCA | -3.24 ± 0.23 | -1.09 ± 0.14 |
| UGCCAGCAAUAUUACGGAAA | -1.8 ± 0.1 | -0.0875 ± 0.13 |
| GCGUAGCAAUAUUACGCCGG | -2.21 ± 0.21 | -3.92 ± 0.42 |
| ACAAAGCAAUAUUACGGUAA | -2.45 ± 0.17 | -1.49 ± 0.13 |
| CCGUAGCAAUAUUACGCAGA | -2.96 ± 0.25 | -2.74 ± 0.24 |
| UAUGAGCAAUAUUACGUAUA | -2 ± 0.4 | -1.02 ± 0.28 |
| AGUAAGCAAUAUUACGGUUU | -1.45 ± 0.092 | -0.554 ± 0.11 |
| AGUAAGCAAUAUUACGUGGA | -3.8 ± 0.4 | -3.85 ± 0.39 |
| AGCCAGCAAUAUUACGGGUG | -2.15 ± 0.075 | -0.713 ± 0.085 |
| GUCUAGCAAUAUUACGAUUU | -0.743 ± 0.056 | 0.36 ± 0.064 |
| CAUCAGCAAUAUUACGUGCG | -0.149 ± 0.056 | 0.355 ± 0.075 |
| UGACAGCAAUAUUACGGGAU | -3.3 ± 0.17 | -2.94 ± 0.15 |

| Sequence | self-splicing fitness (ln) (30 °C) | self-splicing fitness (ln) (37 °C) |
| --- | --- | --- |
| ACACAGCAAUAUUACGUGGC | -3.54 ± 0.23 | -0.291 ± 0.13 |
| GAGUAGCAAUAUUACGCCCU | -0.812 ± 0.24 | -0.124 ± 0.23 |
| CGGAAGCAAUAUUACGGUAU | -4.04 ± 0.16 | -1.95 ± 0.098 |
| CCGUAGCAAUAUUACGUUUA | -3.43 ± 0.44 | -3.04 ± 0.4 |
| CGAGAGCAAUAUUACGUAUA | -4.06 ± 0.36 |  |
| UUGCAGCAAUAUUACGUGAA | -1.12 ± 0.069 | -0.162 ± 0.086 |
| AAUUAGCAAUAUUACGUCAU | -2.24 ± 0.18 | -1.7 ± 0.17 |
| UGUUAGCAAUAUUACGUAAG | -0.949 ± 0.097 | -0.452 ± 0.14 |
| UACGAGCAAUAUUACGAGAU | -3.99 ± 0.46 | -2.99 ± 0.38 |
| UACGAGCAAUAUUACGAAGG |  | -0.765 ± 0.3 |
| GCGUAGCAAUAUUACGAUGU | -2.18 ± 0.068 | -1.15 ± 0.096 |
| CAGUAGCAAUAUUACGCAAA |  | -3.33 ± 0.43 |
| GGUCAGCAAUAUUACGAUCU | -1.8 ± 0.17 | -1.93 ± 0.24 |
| GGUAAGCAAUAUUACGAGUU | -1.56 ± 0.097 | -0.413 ± 0.12 |
| UGUGAGCAAUAUUACGAACA | -0.691 ± 0.42 | -0.543 ± 0.45 |
| CGCAAGCAAUAUUACGACUG | -0.662 ± 0.097 | -0.47 ± 0.12 |
| AUGUAGCAAUAUUACGGGCU | -2.18 ± 0.16 | -0.877 ± 0.16 |
| AUUGAGCAAUAUUACGGGAC | -3.28 ± 0.42 |  |
| AGCAAGCAAUAUUACGAAAC | -4.25 ± 0.25 | -1.03 ± 0.13 |
| AAGGAGCAAUAUUACGGGGA | -3.91 ± 0.29 | -2.25 ± 0.25 |
| CGCGAGCAAUAUUACGUAGU | -3.92 ± 0.18 | -2.14 ± 0.16 |
| UGUCAGCAAUAUUACGACUU | -1.14 ± 0.1 | 0.303 ± 0.16 |
| GGGUAGCAAUAUUACGGUCU | -0.845 ± 0.08 | -0.011 ± 0.11 |
| GACCAGCAAUAUUACGUUCA | -0.884 ± 0.1 | -0.163 ± 0.097 |
| CCUAAGCAAUAUUACGCAUG | -3.6 ± 0.33 | -1.51 ± 0.23 |
| GCAUAGCAAUAUUACGGACU | 0.021 ± 0.15 | -0.121 ± 0.15 |

| Sequence | self-splicing fitness (ln) (30 °C) | self-splicing fitness (ln) (37 °C) |
| --- | --- | --- |
| UCUAAGCAAUAUUACGGGCC | -3.14 ± 0.33 | -2.09 ± 0.33 |
| CUGGAGCAAUAUUACGGAGC | -3.08 ± 0.34 | -2.38 ± 0.38 |
| UCGCAGCAAUAUUACGAAGA | -2.23 ± 0.13 | -1.43 ± 0.15 |
| GACCAGCAAUAUUACGUCCG | -4.09 ± 0.27 | -2.12 ± 0.17 |
| ACCAAGCAAUAUUACGUGAG | -1.19 ± 0.07 | -0.649 ± 0.086 |
| GAGCAGCAAUAUUACGAAAU | -2.45 ± 0.21 | -1.84 ± 0.21 |
| CCUCAGCAAUAUUACGGUCG | -0.693 ± 0.069 | -0.505 ± 0.089 |
| GGAGAGCAAUAUUACGGCUA | -2.06 ± 0.32 | -1.25 ± 0.18 |
| AGCCAGCAAUAUUACGGUGC | -2.49 ± 0.12 | -2.28 ± 0.17 |
| UUACAGCAAUAUUACGUCCC | -3.48 ± 0.24 | -1.31 ± 0.25 |
| UUAAAGCAAUAUUACGCGAA | -0.169 ± 0.15 | 0.0649 ± 0.18 |
| ACGAAGCAAUAUUACGAGCA | -2.84 ± 0.14 | -1.32 ± 0.12 |
| CUCCAGCAAUAUUACGAGUG | -2.45 ± 0.11 | -1.34 ± 0.11 |
| UCAGAGCAAUAUUACGCAGU | -0.644 ± 0.22 | -1.83 ± 0.41 |
| GGCGAGCAAUAUUACGUCGA | -2.43 ± 0.23 | -0.47 ± 0.15 |
| AAUAAGCAAUAUUACGCUGU | -2.61 ± 0.23 | -1.92 ± 0.22 |
| CUGUAGCAAUAUUACGGUCC | -2.27 ± 0.25 | -2.71 ± 0.44 |
| GGGAAGCAAUAUUACGGCUC | -0.727 ± 0.12 | 0.0488 ± 0.17 |
| GACAAGCAAUAUUACGCAUC | -4.33 ± 0.28 | -3.91 ± 0.42 |
| AUAUAGCAAUAUUACGAUAU | -1.87 ± 0.13 | -1.33 ± 0.13 |
| UAAGAGCAAUAUUACGUAGU | -3.21 ± 0.19 | -2.32 ± 0.26 |
| UCUUAGCAAUAUUACGGUCC | -3.99 ± 0.29 | -2.74 ± 0.43 |
| CAAGAGCAAUAUUACGAAGC | -3.5 ± 0.23 | -2.86 ± 0.24 |
| CAGGAGCAAUAUUACGGGUG | -1.64 ± 0.082 | -0.707 ± 0.08 |
| GAGCAGCAAUAUUACGGCGG | -2.18 ± 0.11 | -1.77 ± 0.16 |
